According to US20240101688A1 (MYTHIC THERAPEUTICS, published 2024):
Changes are numbered by the printed parent chain. Blank lines part the entries; values can stand above or below the binder they belong to.

Assays:
[1] = target: T1, MET (cMET, Sino Biological Cat. No. 10692-H08H) (UniProt P08581 25-932); assay: BLI: antibody captured on anti-human Fc biosensor, MET in solution; association at pH 7.4 (0-120 s), dissociation at pH 7.4 (black trace) or pH 5.4 (grey trace)
T1 construct: Soluble analyte of the BLI assays
T1 sequence (P08581 25-932 limits assumed): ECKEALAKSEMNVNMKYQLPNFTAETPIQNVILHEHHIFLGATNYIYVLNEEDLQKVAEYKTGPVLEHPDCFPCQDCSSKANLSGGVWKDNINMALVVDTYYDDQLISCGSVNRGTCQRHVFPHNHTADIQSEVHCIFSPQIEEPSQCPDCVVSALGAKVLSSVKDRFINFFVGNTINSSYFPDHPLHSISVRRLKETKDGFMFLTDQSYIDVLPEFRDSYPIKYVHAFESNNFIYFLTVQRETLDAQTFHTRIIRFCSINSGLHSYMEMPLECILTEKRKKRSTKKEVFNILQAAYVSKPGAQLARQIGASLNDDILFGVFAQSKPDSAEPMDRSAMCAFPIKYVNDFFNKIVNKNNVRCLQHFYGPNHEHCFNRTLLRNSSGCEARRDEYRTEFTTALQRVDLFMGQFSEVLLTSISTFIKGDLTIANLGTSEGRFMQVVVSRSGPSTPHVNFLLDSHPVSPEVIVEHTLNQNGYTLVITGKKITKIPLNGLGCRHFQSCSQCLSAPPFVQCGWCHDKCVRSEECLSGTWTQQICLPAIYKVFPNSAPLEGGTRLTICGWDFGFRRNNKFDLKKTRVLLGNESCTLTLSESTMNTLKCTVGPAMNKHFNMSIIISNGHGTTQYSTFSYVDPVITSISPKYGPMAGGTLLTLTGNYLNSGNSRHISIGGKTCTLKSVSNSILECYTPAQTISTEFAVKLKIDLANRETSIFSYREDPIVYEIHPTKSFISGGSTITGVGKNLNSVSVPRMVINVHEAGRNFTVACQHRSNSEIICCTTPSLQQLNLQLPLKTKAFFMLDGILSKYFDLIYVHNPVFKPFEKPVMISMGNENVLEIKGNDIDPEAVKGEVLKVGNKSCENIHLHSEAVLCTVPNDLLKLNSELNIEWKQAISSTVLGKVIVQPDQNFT
Method: (§1) After allowing for four days of protein expression, cell culture supernatants were collected, quantified by SDS-PAGE analysis, and the pH dependence of the variant was evaluated using biolayer interferometry (BLI) on an Octet RED 96e instrument. Briefly, cell culture supernatants were diluted based on qualitative expression level of the variant determined by visual examination of SDS-PAGE gels, 5 μL of cell culture supernatant was diluted into 195 μL of 1×PBST, pH 7.4 for high expressors, 25 μL of cell culture supernatant was diluted into 175 μL of 1×PBST, pH 7.4 for medium expressors and 100 μL of cell culture supernatant was diluted into 100 μL of 1×PBST, pH 7.4 for low expressors for loading onto the sensor tips. Diluted supernatants were then captured on an anti-human Fc sensor (Forte Bio). A baseline was established using 1×PBST (50 mM Potassium Phosphate Buffer+150 mM NaCl+0.05% Tween 20), pH 7.4, and the sensor was associated with 50 nM of MET (cMET, Sino Biological Cat. No. 10692-H08H) in 1×PBST, pH 7.4, for 120 sec to generate an association curve. In the dissociation phase, the antibody-antigen complex on the sensor was exposed to 1×PBST, pH 7.4 or pH 5.4, for 300-600 sec.

[2] = target: T2, MET Proto-Oncogene, Receptor Tyrosine Kinase (MET), on cells (human, UniProt P08581 25-1390); assay: flow cytometry titration on HUVEC cells (8k/cell), pH 7.4; printed as Affinity at pH 7.4
T2 construct: also called cMET; c-Met
T2 sequence (P08581 25-1390): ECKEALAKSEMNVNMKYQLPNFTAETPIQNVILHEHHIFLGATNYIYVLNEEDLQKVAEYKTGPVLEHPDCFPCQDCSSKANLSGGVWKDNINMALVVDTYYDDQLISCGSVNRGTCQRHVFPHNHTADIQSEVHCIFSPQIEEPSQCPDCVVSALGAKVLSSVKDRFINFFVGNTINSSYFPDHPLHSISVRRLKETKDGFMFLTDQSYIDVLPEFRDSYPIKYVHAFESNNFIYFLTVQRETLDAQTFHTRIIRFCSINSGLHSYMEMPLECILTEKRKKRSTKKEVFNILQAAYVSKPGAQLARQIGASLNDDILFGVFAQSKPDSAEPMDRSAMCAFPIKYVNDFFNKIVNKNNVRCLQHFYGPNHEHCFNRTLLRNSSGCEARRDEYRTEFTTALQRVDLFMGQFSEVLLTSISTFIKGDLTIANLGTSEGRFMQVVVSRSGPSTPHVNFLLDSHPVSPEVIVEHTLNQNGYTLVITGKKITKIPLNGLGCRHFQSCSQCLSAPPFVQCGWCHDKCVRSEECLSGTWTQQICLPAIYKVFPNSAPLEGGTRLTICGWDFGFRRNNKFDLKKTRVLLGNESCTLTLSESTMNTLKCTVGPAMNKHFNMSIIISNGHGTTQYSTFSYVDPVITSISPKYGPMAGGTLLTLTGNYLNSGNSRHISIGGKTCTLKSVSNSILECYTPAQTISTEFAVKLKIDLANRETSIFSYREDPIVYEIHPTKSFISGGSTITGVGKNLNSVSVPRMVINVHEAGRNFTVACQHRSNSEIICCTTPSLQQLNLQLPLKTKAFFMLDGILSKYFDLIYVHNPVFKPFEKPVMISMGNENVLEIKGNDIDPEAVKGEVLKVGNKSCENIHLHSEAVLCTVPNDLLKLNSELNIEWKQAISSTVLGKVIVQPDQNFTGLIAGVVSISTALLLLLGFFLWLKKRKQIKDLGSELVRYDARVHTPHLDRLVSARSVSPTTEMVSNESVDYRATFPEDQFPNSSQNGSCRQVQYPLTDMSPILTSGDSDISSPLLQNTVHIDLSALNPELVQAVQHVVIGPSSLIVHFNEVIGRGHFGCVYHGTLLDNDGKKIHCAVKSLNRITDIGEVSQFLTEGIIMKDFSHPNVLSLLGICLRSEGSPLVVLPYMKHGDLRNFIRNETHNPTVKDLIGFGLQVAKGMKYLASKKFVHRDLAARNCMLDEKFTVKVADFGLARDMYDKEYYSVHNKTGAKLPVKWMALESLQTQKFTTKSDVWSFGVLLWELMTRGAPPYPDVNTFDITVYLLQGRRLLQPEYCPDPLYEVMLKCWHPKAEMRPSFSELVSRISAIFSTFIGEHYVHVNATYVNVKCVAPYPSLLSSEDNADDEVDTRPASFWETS
Method: (§2) Measurement of the affinity of pH-engineered antibodies specific for MET was performed by FACS analysis on cell lines with ranges of cMET expression; Detroit-562 cells (ATCC; CCL-138), NCI-H1975 (ATCC CRL-5908) and HUVEC (C2519A, Lonza). Cell lines selected for this study were obtained from commercial sources and cultured using manufacturer recommended conditions. All cell lines were cultured upon receipt, expanded and cryopreserved at a similar passage number for use in the affinity experiments. Briefly, 1.0×10\hat{ }5 cells that express MET are plated per well in a 96-well plate in 100 μL media. The cells are washed two times with 200 μL of FACS buffer (1×PBS containing 3% Fetal Bovine Serum) at pH 7.4. The purified protein samples are diluted into FACS buffer at pH 7.4, for a titration from 100 nM to 1 pM, and added to the cells and allowed to bind for 2 hours on ice. After incubation with the primary antibodies, cells are washed twice as before, and then 100 μl of secondary goat anti-Human AF488 (IgG Cross-Adsorbed polyclonal secondary antibody), diluted 1:200, is added in FACS buffer pH 7.4, and incubated for 1 hour on ice. The plates are washed twice Binding is read on a flow cytometer (Accuri C6, BD Biosciences). Binding is observed as a shift in the FL1 signal (as a mean fluorescence intensity) versus secondary alone.

[3] = target: T2, MET Proto-Oncogene, Receptor Tyrosine …; assay: affinity on HUVEC against affinity on Detroit-562, flow cytometry, pH 7.4
Method: as §2

[4] = target: T2, MET Proto-Oncogene, Receptor Tyrosine …; assay: flow cytometry titration on Detroit-562 cells (125K/cell), pH 7.4; printed as Affinity at pH 7.4
Method: as §2

[5] = target: T1, MET (cMET, Sino Biological Cat. No. …); assay: BLI: antibody captured on anti-human Fc biosensor, MET in solution; three runs: pH 7.4 throughout (black), pH 6.4 throughout (light grey), association at pH 7.4 then release at lower pH (dark grey; key on D00015: pH 5.4; legend paragraph 84: pH 6.4); association 0-120 s
[6] = target: T1, MET (cMET, Sino Biological Cat. No. …); assay: as above; remark: listed apart in the source
[7] = target: T1, MET (cMET, Sino Biological Cat. No. …); assay: as above; remark: listed apart in the source
[8] = target: T1, MET (cMET, Sino Biological Cat. No. …); assay: BLI: antibody captured on anti-human Fc biosensor, MET in solution; one run at pH 7.4 (black) and one at pH 5.4 (grey); association 0-120 s, then dissociation
Method: as §1, with “Bio).” for “Bio). A baseline was established using 1×PBST (50 mM Potassium Phosphate Buffer+150 mM NaCl+0.05% Tween 20), pH 7.4, and the sensor was associated with 50 nM of MET (cMET, Sino Biological Cat. No. 10692-H08H) in 1×PBST, pH 7.4, for 120 sec to generate an association curve. In the dissociation phase, the antibody-antigen complex on the sensor was exposed to 1×PBST, pH 7.4 or pH 5.4, for 300-600 sec.”

[9] = target: T1, MET (cMET, Sino Biological Cat. No. …); assay: BLI: antibody captured on anti-human Fc biosensor, MET in solution; three runs: pH 7.4 throughout (black), pH 6.4 throughout (light grey), association at pH 7.4 then release at lower pH (dark grey; key on D00015: pH 5.4; legend paragraph 84: pH 6.4); association 0-120 s; remark: listed apart in the source

binding result [5]: binds
B3: MYT4849 (antibody, V domains shown)
VH: QVQLVQSGAEVKKPGASVKVSCKASGYTFTDYYMHWVRQAPGQGLEWMGRVNPNRRGTTYNQKFEGRVTMTTDTSTSTAYMELRSLRSDDTAVYYCARANWLDYWGQGTTVTVSS
VL: DIQMTQSPSSLSASVGDRVTITCSVSSSVSSIHLHWYQQKPGKAPKLLIYHTSNLASGVPSRFSGSGSGTDFTLTISSLQPEDFATYYCQVYSGYPLTFGGGTKVEIKR
notes: Emibetuzumab variant

binding result [6]: binds
B4: MYT4827 (antibody, V domains shown)
VH: B3 VH with D31H, N100H
VL: B3 VL with H33Y, H51S
notes: Emibetuzumab variant

binding result [7]: binds
B6: MYT4942 (antibody, V domains shown)
VH: QVQLVQSGAEVKKPGASVKVSCKASGHIFTAYTMHWVRQAPGQGLEWMGWIKPNNGLANYAQKFQGRVTMTRDTSISTAYMELSRLRSDDTAVYYCARSEITHEFDHWGQGTLVTVSS
VL: DIVMTQSPDSLAVSLGERATINCKSSESVDSYANSHLHWYQQKPGQPPKLLIYRASTRESGVPDRFSGSGSGTDFTLTISSLQAEDVAVYYCQQSKEDPLTFGGGTKVEIKR
notes: Telisotuzumab variant

binding result [8]: binds
B7: MYT4313 (antibody, V domains shown)
VH: QVQLVQSGAEVKKPGASVKVSCKASGYTFTSYWMHWVKQAPGQGLDWIGYIKPSTDNTHYNQKFKDKATLTADKSTSTAYMELSSLRSEDTAVYYCARSYGHYPLMDYWGQGTTVTVSS
VL: QIVLTQSPAILSLSPGERATLSCSASSSVTSNYLYWYQQKPGSSPKLLIYSTSNLASGVPARFSGSGSGTSYTLTISSLEAEDAASYFCHQWSSYPPTFGSGTKLEIKR
notes: P3D12 variant

binding result [1]: binds
B9: MYT5367 (antibody, V domains shown)
VH: B7 VH with Y50H, H59E, H102N
VL: B7 VL with S94H, P96H
notes: P3D12 variant

binding result [1]: binds
B10: MYT5344 (antibody, V domains shown)
VH: B7 VH with P53H, H59E, H102N
VL: B7 VL with N32H
notes: P3D12 variant

binding result [9]: binds
B12: MYT4888 (antibody, V domains shown)
VH: B7 VH with H59E, H102N, M106H
VL: B7 VL
notes: P3D12 variant; also called MYTH4888

Second part, the binder before the results:

B1: MYT4826 (antibody, V domains shown)
VH: B3 VH with D31H, G57H
VL: B3 VL with H33Y, H51S
notes: Emibetuzumab variant
binding result [1]: binds

B2: MYT5309 (antibody, V domains shown)
VH: B3 VH with D31H
VL: B3 VL with H33Y, H51S, V91H
notes: Emibetuzumab variant
Kd [2]: > 200 nM
Fold Avidity [3]: > 50 fold
Kd [4]: 1.34 nM

B5: MYT4837 (antibody, V domains shown)
VH: B3 VH with D31H, N54H, G57H
VL: B3 VL with H33Y, H51S
notes: Emibetuzumab variant
Kd [2]: > 100 nM
Fold Avidity [3]: > 100 fold
Kd [4]: 1.02 nM

B8: MYT4305 (P3D12) (antibody, V domains shown)
VH: B7 VH with H59E, H102N
VL: QIVLTQSPAILSLSPGERATLSCSASSSVTSNYLYWYQQKPGSSPKLLIYSTSNLASGVPARFSGSGSGTSYTLTISSLEAEDAASYFCHQWSSYPPTFGSGTKLEIK
notes: Human IgG1; also called P3D12 anti-cMET
Kd [2]: 0.2 nM
Fold Avidity [3]: 0.7 fold
Kd [4]: 0.292 nM

B11: MYT5351 (antibody, V domains shown)
VH: B7 VH with Y50H, H59E, H102N
VL: B7 VL with T52H
notes: P3D12 variant
Kd [2]: > 100 nM
Fold Avidity [3]: > 200 fold
Kd [4]: 0.486 nM
